Data taken from paper PMC6370785.

Tests used:
[1] = biological target: recombinant human TRAIL/Apo2 Ligand (rhTRAIL) (human) (UniProt P50591); assay: SDS-PAGE and Western blot; 100 ng rhTRAIL as positive control on the same blot; whether BS3 was added to it is not told
[2] = biological target: soluble TRAIL (sTRAIL), secretable trimer-forming variant of human TRAIL (human | yeast) (UniProt P50591); assay: SDS-PAGE and Western blot without cross-linker; 293T culture supernatant (48 h after transfection) without BS3, 4-20% SDS-PAGE, Western blot with anti-TRAIL
[3] = biological target: soluble TRAIL (sTRAIL), secretable trimer-forming variant of human TRAIL (human | yeast) (UniProt P50591); assay: cross-linking; 293T culture supernatant (48 h after transfection) with 1 mM BS3, 4-20% SDS-PAGE, Western blot with anti-TRAIL

| stoichiometry N [1] | stoichiometry N [2] | stoichiometry N [3] | Substance |
| --- | --- | --- | --- |
| 3 |  |  | recombinant human TRAIL/Apo2 Ligand (rhTRAIL) (from UniProt P50591 1-281) |
|  | 2 | 3 | soluble TRAIL (sTRAIL), secretable trimer-forming variant of human TRAIL (from UniProt P50591 114-281) (ligand) |
